Test results as given in PMC8863895, “A synthetic protein as efficient multitarget regulator against complement over-activation” (Communications Biology, 2022).
Values belong to the binder of their own block, whether it stands above or below them.

Tests used:
Settings in all cases: both partners purified
C3b = biological target: T1, C3b (human); assay: ELISA; decay acceleration assay: 250 ng C3b immobilised on Maxisorp; C3bBb formed with 400 ng Factor B and 25 ng Factor D, 2 h 37 °C; increasing concentrations of regulator, 40 min 37 °C; Bb remaining bound to C3b detected with anti-factor B polyclonal antibody
T1 construct: complement C3, C3b β-chain; complement C3, C3b α′-chain (C3 α-chain after release of C3a); also called complement C3b; source: bought: CompTech

C8 = biological target: T2, C8 (human, UniProt P07357 31-584; P07358 55-591; P07360 21-202); assay: ELISA; C5b6, C6, C7, C8, C9, C3b or C5 (5 µg/mL) immobilised on Maxisorp plates; single concentration of regulator (25 nM MFHR13 or MFHR1 variants, 50 nM FHR1); detected with anti-His-tag antibodies
T2 construct: also called complement component C8; source: bought: CompTech; copies: + +
T2 sequence (P07357 31-584, chain 1 of 3): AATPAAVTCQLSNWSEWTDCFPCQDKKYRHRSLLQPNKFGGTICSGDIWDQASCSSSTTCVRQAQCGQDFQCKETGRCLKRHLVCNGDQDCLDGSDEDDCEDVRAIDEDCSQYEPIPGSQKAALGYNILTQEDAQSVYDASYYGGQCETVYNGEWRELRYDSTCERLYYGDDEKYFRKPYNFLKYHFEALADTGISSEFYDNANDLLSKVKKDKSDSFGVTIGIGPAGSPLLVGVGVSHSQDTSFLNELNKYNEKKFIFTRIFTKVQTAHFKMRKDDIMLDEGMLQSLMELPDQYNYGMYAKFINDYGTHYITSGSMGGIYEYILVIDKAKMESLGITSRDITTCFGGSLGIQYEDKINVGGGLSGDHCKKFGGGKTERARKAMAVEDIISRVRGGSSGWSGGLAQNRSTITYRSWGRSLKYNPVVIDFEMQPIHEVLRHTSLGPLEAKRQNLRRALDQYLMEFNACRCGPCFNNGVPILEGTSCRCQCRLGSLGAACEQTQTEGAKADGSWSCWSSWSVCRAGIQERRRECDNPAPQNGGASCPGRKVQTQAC
T2 sequence (P07358 55-591, chain 2 of 3): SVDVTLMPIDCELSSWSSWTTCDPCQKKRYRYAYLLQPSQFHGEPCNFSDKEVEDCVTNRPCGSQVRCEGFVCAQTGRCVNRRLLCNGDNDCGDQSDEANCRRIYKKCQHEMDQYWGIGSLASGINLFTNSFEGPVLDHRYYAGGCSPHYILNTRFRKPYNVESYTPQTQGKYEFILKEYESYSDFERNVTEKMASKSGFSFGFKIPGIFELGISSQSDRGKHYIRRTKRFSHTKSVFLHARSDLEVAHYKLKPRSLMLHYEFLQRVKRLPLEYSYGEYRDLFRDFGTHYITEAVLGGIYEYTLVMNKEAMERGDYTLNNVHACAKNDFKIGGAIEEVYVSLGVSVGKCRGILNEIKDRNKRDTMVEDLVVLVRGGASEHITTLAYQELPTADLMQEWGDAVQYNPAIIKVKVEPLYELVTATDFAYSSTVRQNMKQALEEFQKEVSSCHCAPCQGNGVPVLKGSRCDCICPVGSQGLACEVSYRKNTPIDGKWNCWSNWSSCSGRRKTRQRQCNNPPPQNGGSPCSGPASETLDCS
T2 sequence (P07360 21-202, chain 3 of 3): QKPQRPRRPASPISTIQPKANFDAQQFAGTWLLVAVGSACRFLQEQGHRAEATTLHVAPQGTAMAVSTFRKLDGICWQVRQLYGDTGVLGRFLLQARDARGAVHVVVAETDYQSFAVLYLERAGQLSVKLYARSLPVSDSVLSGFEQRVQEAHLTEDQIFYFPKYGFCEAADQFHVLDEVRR

C6 = biological target: T3, C6 (human, UniProt P13671 22-934); assay: as above
T3 construct: complement component C6; also called complement component C6; source: bought: CompTech
T3 sequence (P13671 22-934): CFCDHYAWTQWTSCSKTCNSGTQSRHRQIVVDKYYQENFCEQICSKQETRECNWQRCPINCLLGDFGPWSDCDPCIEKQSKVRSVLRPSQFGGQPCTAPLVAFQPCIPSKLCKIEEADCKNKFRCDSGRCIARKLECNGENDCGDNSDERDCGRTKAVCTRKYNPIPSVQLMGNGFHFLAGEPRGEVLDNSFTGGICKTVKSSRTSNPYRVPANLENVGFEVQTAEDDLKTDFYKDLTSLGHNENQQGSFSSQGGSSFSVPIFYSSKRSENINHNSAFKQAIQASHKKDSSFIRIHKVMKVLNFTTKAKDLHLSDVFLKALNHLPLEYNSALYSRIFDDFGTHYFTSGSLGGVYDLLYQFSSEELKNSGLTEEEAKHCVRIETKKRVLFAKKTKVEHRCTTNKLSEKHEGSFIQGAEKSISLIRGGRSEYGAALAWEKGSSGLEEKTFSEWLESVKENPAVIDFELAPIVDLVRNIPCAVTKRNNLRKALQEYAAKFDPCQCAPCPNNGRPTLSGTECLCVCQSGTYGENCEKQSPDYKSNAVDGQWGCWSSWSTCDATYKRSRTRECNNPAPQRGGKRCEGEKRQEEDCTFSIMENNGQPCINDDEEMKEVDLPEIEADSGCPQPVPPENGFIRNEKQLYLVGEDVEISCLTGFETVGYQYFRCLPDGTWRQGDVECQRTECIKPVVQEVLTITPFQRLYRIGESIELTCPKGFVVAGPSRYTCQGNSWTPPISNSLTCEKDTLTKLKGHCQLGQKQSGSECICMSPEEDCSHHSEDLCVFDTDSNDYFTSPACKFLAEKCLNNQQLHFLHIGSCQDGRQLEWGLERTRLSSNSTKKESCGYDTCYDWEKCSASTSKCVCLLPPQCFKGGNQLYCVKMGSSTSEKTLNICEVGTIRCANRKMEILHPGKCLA

C9 = biological target: T4, C9 (human, UniProt P02748 22-559); assay: as above
T4 construct: complement component C9; Supplier is stated for the ELISA; also called complement component C9; source: bought: CompTech
T4 sequence (P02748 22-559): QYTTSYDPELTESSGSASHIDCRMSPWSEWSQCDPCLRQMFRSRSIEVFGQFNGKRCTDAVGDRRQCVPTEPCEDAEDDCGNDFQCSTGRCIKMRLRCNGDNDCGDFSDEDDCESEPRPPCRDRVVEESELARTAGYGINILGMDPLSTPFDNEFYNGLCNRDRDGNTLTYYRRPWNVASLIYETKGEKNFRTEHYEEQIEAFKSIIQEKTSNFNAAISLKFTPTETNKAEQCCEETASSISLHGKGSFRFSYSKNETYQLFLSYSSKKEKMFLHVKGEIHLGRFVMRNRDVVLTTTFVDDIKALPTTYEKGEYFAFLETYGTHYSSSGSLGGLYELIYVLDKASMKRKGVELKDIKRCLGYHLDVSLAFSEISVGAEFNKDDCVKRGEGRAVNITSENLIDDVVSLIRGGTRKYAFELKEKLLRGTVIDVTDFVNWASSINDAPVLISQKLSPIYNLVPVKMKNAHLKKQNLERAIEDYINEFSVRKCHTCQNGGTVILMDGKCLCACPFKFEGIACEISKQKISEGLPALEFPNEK

C7 = biological target: T5, C7 (human, UniProt P10643 23-843); assay: as above
T5 construct: complement component C7; Supplier is stated for the ELISA; also called complement component C7; source: bought: CompTech
T5 sequence (P10643 23-843): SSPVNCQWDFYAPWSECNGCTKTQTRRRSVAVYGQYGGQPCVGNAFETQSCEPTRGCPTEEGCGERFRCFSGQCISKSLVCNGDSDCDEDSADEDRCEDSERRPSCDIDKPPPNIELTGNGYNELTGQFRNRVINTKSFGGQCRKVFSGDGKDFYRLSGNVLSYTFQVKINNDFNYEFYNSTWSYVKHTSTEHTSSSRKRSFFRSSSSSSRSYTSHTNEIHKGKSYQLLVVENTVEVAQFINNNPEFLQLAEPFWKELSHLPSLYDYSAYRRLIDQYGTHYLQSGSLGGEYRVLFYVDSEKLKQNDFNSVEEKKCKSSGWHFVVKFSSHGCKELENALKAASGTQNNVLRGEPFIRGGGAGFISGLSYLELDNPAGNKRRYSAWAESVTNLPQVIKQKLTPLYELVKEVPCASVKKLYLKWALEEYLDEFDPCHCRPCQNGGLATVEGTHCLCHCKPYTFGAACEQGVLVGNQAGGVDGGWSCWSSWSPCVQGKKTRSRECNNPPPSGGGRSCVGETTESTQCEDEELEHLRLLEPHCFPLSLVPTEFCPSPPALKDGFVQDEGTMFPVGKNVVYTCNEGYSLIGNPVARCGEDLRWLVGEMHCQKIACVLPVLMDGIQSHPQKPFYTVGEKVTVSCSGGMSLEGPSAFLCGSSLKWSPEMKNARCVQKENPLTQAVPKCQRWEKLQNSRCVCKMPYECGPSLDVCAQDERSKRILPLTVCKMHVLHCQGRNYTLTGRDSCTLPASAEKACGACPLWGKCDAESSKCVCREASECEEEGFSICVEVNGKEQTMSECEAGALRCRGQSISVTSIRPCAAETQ

complement C5 = biological target: T6, complement C5; assay: ELISA; 5 µg/mL C3b or C5 immobilised on Maxisorp plates at 4 °C overnight; increasing concentrations of regulator (0.195-50 nM) in sample buffer (2% BSA in TBS, 0.05% Tween-20); detected with anti-His-tag antibodies; absorbance normalised to the highest concentration; IC50 from a 4PL nonlinear regression
T6 construct: complement C5 beta chain; complement C5 alpha chain; source: bought: CompTech

complement C3b = biological target: T7, complement C3b (UniProt P01024 749-1663; P01024 749-1663); assay: as above
T7 construct: C3b beta-chain, cut product of complement C3; C3b alpha'-chain, cut product of complement C3 (alpha chain without C3a); source: bought: CompTech

IC50 (C3b): 2.7 nM
B1: MFHR13 (FHR1_(1-2):FH1-4:FH13:FH_(19-20)) (other)
chain: EATFCDFPKINHGILYDEEKYKPFSQVPTGEVFYYSCEYNFVSPSKSFWTRITCTEEGWSPTPKCLRLCFFPFVENGHSESSGQTHLEGDTVQIICNTGYRLQNNENNISCVERGWSTPPKCRSTEDCNELPPRRNTEILTGSWSDQTYPEGTQAIYKCRPGYRSLGNIIMVCRKGEWVALNPLRKCQKRPCGHPGDTPFGTFTLTGGNVFEYGVKAVYTCNEGYQLLGEINYRECDTDGWTNDIPICEVVKCLPVTAPENGKIVSSAMEPDREYHFGQAVRFVCNSGYKIEGDEEMHCSDDGFWSKEKPKCVEISCKSPDVINGSPISQKIIYKENERFQYKCNMGYEYSERGDAVCTESGWRPLPSCVAIDKLKKCKSSNLIILEEHLKNKKEFDHNSNIRYRCRGKEGWIHTVCINGRWDPEVNCSMAQIQLCGPPPPIDNGDITSFPLSVYAPASSVEYQCQNLYQLEGNKRITCRNGQWSEPPKCLHPCVISREIMENYNIALRWTAKQKLYSRTGESVEFVCKRGYRLSSRSHTLRTTCWDGKLEYPTCAKR
modifications: N-glycan at the NIS site in FHR1 SCR2 (around 65% occupied); N-glycan at the NCS site in FH13 (fully glycosylated); glycosylation site in FH4 deamidated and not glycosylated; labelled with NT-647 RED-NHS for MST

binding result (C8): binds | binding result (C6): binds | binding result (C9): binds | binding result (C7): binds
B2: Recombinant FHR1 (human FH-related protein 1) with a C-terminal 6x His-tag (natural protein, UniProt Q03591 19-330, looked up)
chain: EATFCDFPKINHGILYDEEKYKPFSQVPTGEVFYYSCEYNFVSPSKSFWTRITCTEEGWSPTPKCLRLCFFPFVENGHSESSGQTHLEGDTVQIICNTGYRLQNNENNISCVERGWSTPPKCRSTDTSCVNPPTVQNAHILSRQMSKYPSGERVRYECRSPYEMFGDEEVMCLNGNWTEPPQCKDSTGKCGPPPPIDNGDITSFPLSVYAPASSVEYQCQNLYQLEGNKRITCRNGQWSEPPKCLHPCVISREIMENYNIALRWTAKQKLYLRTGESAEFVCKRGYRLSSRSHTLRTTCWDGKLEYPTCAKR
notes: complement factor H-related protein 1 (FHR1), human; source: bought: Abcam 152006; not shown: His6, C-terminal, kept

IC50 (complement C5): 52.5 nM | IC50 (complement C3b): 16.1 nM
B3: MFHR13 (FHR1_(1-2):FH1-4:FH13:FH_(19-20)) (other)
chain: EATFCDFPKINHGILYDEEKYKPFSQVPTGEVFYYSCEYNFVSPSKSFWTRITCTEEGWSPTPKCLRLCFFPFVENGHSESSGQTHLEGDTVQIICNTGYRLQNNENNISCVERGWSTPPKCRSEDCNELPPRRNTEILTGSWSDQTYPEGTQAIYKCRPGYRSLGNIIMVCRKGEWVALNPLRKCQKRPCGHPGDTPFGTFTLTGGNVFEYGVKAVYTCNEGYQLLGEINYRECDTDGWTNDIPICEVVKCLPVTAPENGKIVSSAMEPDREYHFGQAVRFVCNSGYKIEGDEEMHCSDDGFWSKEKPKCVEISCKSPDVINGSPISQKIIYKENERFQYKCNMGYEYSERGDAVCTESGWRPLPSCVAIDKLKKCKSSNLIILEEHLKNKKEFDHNSNIRYRCRGKEGWIHTVCINGRWDPEVNCSMAQIQLCGPPPPIDNGDITSFPLSVYAPASSVEYQCQNLYQLEGNKRITCRNGQWSEPPKCLHPCVISREIMENYNIALRWTAKQKLYSRTGESVEFVCKRGYRLSSRSHTLRTTCWDGKLEYPTCAKR
